From publication PMC4538837, “Structural basis for substrate recognition and processive cleavage mechanisms of the trimeric exonuclease PhoExo I” come the findings set out here.

This data set deals with PhoExo I D80N (Pyrococcus horikoshii OT3, UniProt A0A060P168 1-229, D80N). Put plainly: X-ray crystal structure (1.95 A); Mg2+ (soaked), one at A metal site; EMSA: 25 mM Hepes-NaOH pH 7.5, 50 mM NaCl, 0.1 mM EDTA, 0.1 mg/ml BSA, 5 nM probe, 0-1600 nM trimer, 5 min 55 C, then 0.05% glutaraldehyde 10 min at room temperature; 7.5% native PAGE in TBE. The following applies: protein: recombinant; tags: C-terminal 4xHis (mutants made from the CHis plasmid; crystal construct not detailed in the material); chain copies: 3; single strand; 3 copies per trimer.
Chain of PhoExo I D80N (A0A060P168 entry or part of it D80N | D80N D80N): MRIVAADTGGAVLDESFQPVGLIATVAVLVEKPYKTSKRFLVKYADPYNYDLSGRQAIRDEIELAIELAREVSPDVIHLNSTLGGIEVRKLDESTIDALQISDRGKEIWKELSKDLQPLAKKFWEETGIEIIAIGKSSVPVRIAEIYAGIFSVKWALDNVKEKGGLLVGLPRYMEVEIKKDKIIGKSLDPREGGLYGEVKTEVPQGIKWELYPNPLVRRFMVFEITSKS

Consider TTTTTTT (ssDNA) [poly-dT 7 nt], for which the binding result is reported as “binds”.
